Reference: patent publication US20250034594A1, “RNA-GUIDED GENOME RECOMBINEERING AT KILOBASE SCALE” (THE BOARD OF TRUSTEES OF THE LELAND STANFORD JUNIOR …, priority 2021, published 2025)

Columns and labels:
Type in all cases: cell-based
[1] = system: gene editing with Cas9 and dCas9; assay: Screen of 322 new SSAP proteins, activity across all experiments (Cas9 and dCas9, Table 5); set-up: scale not given here
Outline: (§1)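 First, 322 new single-strand annealing proteins are identified from sequences. Next they are synthesized. Finally each is assayed for editing in combination with Cas9 and, separately, dCas9.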

gene editing with Cas9 = assay: Screen of 322 new SSAP proteins, gene editing activity with Cas9 (Table 5); set-up: Cas9 with SSAP activity: scale not given here
Outline: as §1

gene editing with dCas9 = assay: Screen of 322 new SSAP proteins, gene editing activity with dCas9 (Table 5); set-up: dCas9 with SSAP activity: scale not given here
Outline: as §1

| Molecule | Activity across all experiments [1] | Cas9 with SSAP activity (gene editing with Cas9) | Cas9 with SSAP activity (normalized) (gene editing with Cas9) | dCas9 with SSAP activity (gene editing with dCas9) | dCas9 with SSAP activity (normalized) (gene editing with dCas9) |
| --- | --- | --- | --- | --- | --- |
| SSAP_177: SEQ ID NO: 346; Geomicrobium sp. JCM 19055 (protein, listed as Geomicrobium sp.) GYKGMIDLARRSGHIKSIYAHTVHANDEFEYELGLEPKLVHKPATGDRGNMEYAYAVAHFVDGGYQFEVFSHHDIEQVKKRSKAGNFGPWKTDYEEMAKKTVVRRMFKYLPISIEIQQHASQDETVRRDITEEAEKVDNIIDLPNYEDPNNIDVPDEEQDEQKDEKQKQQGSAEEIALDFK | −0.236 | −0.293 | −0.508 | −0.179 | −0.069 |
| SSAP_207: SEQ ID NO: 376; Mycobacterium sp. 1245499.0 (protein, listed as Mycobacterium sp.) TTQPEYKPVAQGADKQMTTGKLLKMLEPEIGRALPKGMDPDRICRLVMTEVRKNPMLTQCTQESFAGALLTASALGLEPGVNGEAWLVPYRDRKRGIVECQFIMGYNGVAKLFWQSPHADRLDAQLVCANDHFRYVKGLSPILEHVESDGDRGDPIAYYAIVGVKGAQPMWDVFKPEAIAQLRGGRVGTKGDIDDPQRWMERKTALKQVLKLAPKSTRLDLAIRADERSGSDLYKSQGMEVHAIEPGFIETEAEPETQEQ | −6.496 | −4.938 | −0.798 | −8.053 | −1.345 |
| SSAP_33: SEQ ID NO: 202 (protein) TTNQVVTHKNFFNAPNVQKSFDDVWKGAGVQFATSILSVIQGNASLKSASNESIMTSAMKAAVLNLPIEPSLGRAYLVPYKGQVQFQLGYKGLIELAQRSGKYKSINAGPVYKSQFVSYDPLFEELTLDFTQPQDEVIGYFASFSLLNGFRKLTYWTKAEVEAHGKKFSKTFGNGPWKTDFDAMARKTVLKHILSIYGPLSVEMQTGMQNDESENDNATRDIKTAEPVNADQQLLEDLMNVDTETGEILEEVSELKDNGELDLKYEDPNAR | −3.528 | 1.307 | 0.578 | −8.362 | −1.043 |
| SSAP_146: SEQ ID NO: 315; Mobilisporobacter senegalensis (protein, listed as Mobilisporobacter senegalensis) KDIKSALEKKVDKQDVKLTKSMSITDMIKALEPEIKKALPSVITPERFTRMALSAVNNTPKLAECSQMSFLAALMNAAQLGLEPNTSLGQAYLIPYQNKGKLECQFQLGFKGMIDLVYRNEKVQTIQAHCVYEEDYFEYELGLDSKLAHKPALANRGKMILVYAFFKLENGGFGFEVMSKEDIDIHALKYSKGYSSQYSPWKSNYEDMAKKTVIKKVLKYAPLKIDFQRAISVDETVKAEISIDMSEVQNEEIIDGQCTDVGEIEEK | −5.040 | −0.626 | −2.428 | −9.454 | −1.210 |
| SSAP_201: SEQ ID NO: 370; Streptomyces reniochalinae (protein, listed as Streptomyces reniochalinae) SQISNAVAKRDNSPGAMVQQYKADFSTVLPDHVKPDTWVRLAQGVLRRDKNLAQAAERNPGSLMTALLDCARLGHEPGTESFYLVPFGGEVQGIEGYRGVVERMYRAGAIASVKAEVVCQGDDFDYQPDMDKPRHRVDWFGDRGPIVGAYAYAIFKDGSTSRVAVINRAYIDKVKKESKGSDRATSPWMKWEEQMVLKTVAKRLEPWVPTSNEWRREQLRAAREVANEPTPPTTPAPPAPEQVDPDTGEVIDGELVDDTPTQ | −4.249 | −0.461 | −0.195 | −8.036 | −1.510 |
| SSAP_78: SEQ ID NO: 247 (protein) RTDGTKEAGAAATAPTEGKAPAKAHKPADTIGAMIEKLKPQIERALPKHVTPDRMARMALTAIRNNPKLGQAEAVSLMGSIIQASQLGLEPNTPLGQCYIIPYNSKNGMQAQFQMGYKGIVDLAHRSGQYRQLTAHPVDEADEFRYSYGLNPDLVHVPAEKPSGKITHYYAVYHLTNGGFDFRVWSREKVEAHAKQYSKSFSSGPWQTNFDQMACKTVMIDLLRYAPKSVEIAKATSADNRTHTINPEDPDLNIDTIDGDFELEGEER | −4.307 | −0.849 | −0.295 | −7.766 | −2.216 |
| SSAP_312: SEQ ID NO: 481; Gallionellaceae bacterium CG1_02_56_997 (protein, Gallionellaceae bacterium CG1_02_56_997) GRKEVERIRDGSRGYQAAKKYKKESTWDTDFVAMGLKTAIRRICKFLPKSPELATALAMDEQAGRQNLNLDDVINGSYTPVVDKDTGEIVDVADGGKTGNSNAATSTKLEKLEKIVAALRDANSVEALDEIYIRAEGDLDDANLEIAMREYRKCKDAISNSLI | −0.501 | −0.905 | −0.436 | −0.097 | −0.073 |
| SSAP_185: SEQ ID NO: 354; Pirellula sp. SH-Sr6A (protein, listed as Pirellula sp.) SEATKEAKPETAIAKKPNGIKDWLKSDALKTQIASVAPKHMAPERVMRIALNAVSRTPKLADCTPESFMRCLLDLSSWGLEPDGRHAHLIPYGTECTLVLDYKGLVTLAYRSGWVKKIHADVVFEGDIFVYSLGTVCQHIPWEFRDDANKPEHKGHFRAAYCVVTMADGIEKHEVMTASEIDAIKAKSRSGNSGPWKDHYTEMAKKTVYRRASKWLPLSPEQADAMERDDDRIIDAVSVAVTQRLSKAAMPLIGANETGDTE | −5.013 | −1.825 | −0.708 | −8.201 | −2.012 |
| SSAP_124: SEQ ID NO: 293; Clostridium sp. AM58-1XD (protein, listed as Clostridium sp.) SVDVKNELEKRAAGTVNPAVKLTKNMTIVDMVRALEPEIKRALPTILTPERFMRMALSAINNTPELADCTPMSFIAALMNAAQLGMEPNTPLGQAYLIPYKNKGTLECQFQIGYKGLIDLAYRTGLIQVIQAQTVREFDSFEYQYGLDSRLTHRPGDGERGEITYIYGLFKLTNGGYGFEVSNKADMDAFAEKYSKSFGSRFSPWKENYEDMAKKTVIKRALKYAPVSSDFQKALSMDETIKSELSIDMSEIRNECQVEASGQEGAA | −7.244 | −5.698 | −1.064 | −8.790 | – |
| SSAP_292: SEQ ID NO: 461; Paenibacillus rhizosphaerae (protein, listed as Paenibacillus rhizosphaerae) SSKLVEINSKLDSFLDAQHKAMPKGFNKTRFLQNSMSVLRDIEGLEQCDPKSVALVMLKGAFLGLDFFNKECYPVVYAGKVEFQTDYKGEVKLVKKYSTKPVREIYAKLVRQGDDFSEEIVAGSQTINFKPLPFNNGEIVGAFAVVNYVDGTMQYDTMSTEEIEKIKVNFSRKSKKTNEYSKAWVVTPGEMYKKTVLRRLCKTIDLDFDTIEQAQAFEDAADMDFNQDSKPQQQSPLNPMVIDVEYEEVKEEQADAAEQE | −6.169 | −4.432 | −0.752 | −7.905 | −1.546 |
| SSAP_284: SEQ ID NO: 453; Paenibacillus sp. VMFN-D1 (protein, listed as Paenibacillus sp.) AKALLENKLQERAAGASTPSTQGTSLKALLNSPAIKKRFDELLDKRSAQYMTSIVNLYNSDAMLQKAEPMSVISSCIVAATLDLPVDKNLGYAWIVPYSGKAQFQLGYKGYIQLALRTGQYKAINVIEVYEGELVKWNPLTEALELDFEKRKSDAVIGYAGYFELINGFRKSVYWTREQIESHRKKFSKSDFGWKKDYDAMAKKTIIRNMLSKWGILSIEMQDAYSKEIEAIPPLNNENEEDPPIDLTPEDYRVGDEPQDGKEQGEMNFE | −4.873 | −1.673 | −1.388 | −8.073 | −1.172 |
| SSAP_230: SEQ ID NO: 399; Leuconostoc pseudomesenteroides (protein, Leuconostoc pseudomesenteroides) ANEITLAKQLSSDKVVEQFAATAGESAKSFAKEVALTISGNPALQHAKLGTVIVEATKASALGLSLLPTVGEAYLVPYKGDAQFQLGYKGIVQLAMRSGQMKSFGAESVYEGENPKWDKYNQELVTDGEETGKIIGYYAFFTLVNGFKMAAYWPKEKVEAHRDRFSKSKKGPWSTDFDAMAKKTVLKSILQYAPKSSEMKRALAEDTQAEYVQAGIQDVTPEPANIEAPIETANAPEINAQEESLFGELSDVDKETAPNPFAQNLGGDN | −3.700 | 0.548 | 0.321 | −7.949 | −1.164 |
| SSAP_303: SEQ ID NO: 472; Paenibacillus sp. BK033 (protein, listed as Paenibacillus sp.) AANTQLITIHNNLEKLIEAKKDAMPQGFNKTRFIQNCMTVLQDTYGIEKCEPTTVARTLLKGAFLGLDFFNKECYAIPYGASMNFQTDYKGERKLAKKYSVRKVKDIYAKLVRAGDVFEENITDGQQTIQFAPVPFNNGDIVGAFAVVLFHDGGMLYETMSIAEMEHIKENYSKKSKDTGKFSKAWEVSTGEMYKKTVLRRLCKNIELDFDTIEQARAFEDAADVDFNKKTAPQQTSPLNVVEAEYEVVNDGSATEAQSE | −3.683 | 1.686 | 2.052 | −9.053 | – |
